The data set deals with the molecule itself. As to the kind of experiment: immunoblot of unboiled N. benthamiana leaf extract, SDS-PAGE, anti-Kcv detection. (In general: Immunoblotting shows a protein as a band on a membrane.)

B1: Blue Light-INduced K+ channel 1 (BLINK1) (other)
chain: MGCTVSAELATTLERIEKNFVITDPRLPDNPIIFASDSFLQLTEYSREEILGRNCRFLQGPETDRATVRKIRDAIDNQTEVTVQLINYTKSGKKFWNLFHLQPMRDQKGDVQYFIGVQLDGTEHVRDAAEREGVMLIKKTAEVFSKFLTRTEPFMIHLFILAMFVMIYKFFPGGFENNFSVANPDKKASWIDCIYFGVTTHSTVGFGDILPKTTGAKLCTIAHIVTVFFIVLTL
notes: Expressed transiently under the CaMV 35S promoter in N. benthamiana leaves; Unboiled total protein extract was run on SDS-PAGE; The tetramer was detected, with an expected Mw of 106.5 kDa; also called synthetic, blue light-gated K+ channel
On to B1, for which the binding result was “binds”.

(Values after patent US20220042026A1 (UNIVERSITY COURT OF THE UNIVERSITY OF GLASGOW, published 2022).)
